Experimental findings from article doi:10.1101/2022.03.31.486524 are described below.

Assay [1] concerns the target CelTOS N-terminal truncation mutant (Gly51-Asp196) (Plasmodium vivax). Put plainly: SEC. Background: SEC sorts molecules by how far they enter the pores of the column.
In assay [2] the target is CelTOS double mutant Lys122Asp, Leu164Asp (Plasmodium vivax). Put plainly: SEC.
The target in assay [3] is Disulfide-locked CelTOS dimer (Ser55Cys, Ala123Cys) (Plasmodium vivax). Put plainly: cross-linking.

On to “CelTOS N-terminal truncation mutant (Gly51-Asp196) (domain or fragment)”, for which the stoichiometry N – broadly, the number of molecules, sites or subunits per partner or assembly – in assay [1] amounted to 2.

In turn, “CelTOS double mutant Lys122Asp, Leu164Asp (natural protein)” showed a stoichiometry N in assay [2] of 2.

On to “Disulfide-locked CelTOS dimer (Ser55Cys, Ala123Cys) (natural protein)”, for which, in assay [3], the precursor abundance of cross-linked species stood at 70% and the stoichiometry N was found to be 2.
